Assay results taken from patent US20090130692A1.

T1: human plasmin (Human), P00747
T1 chain: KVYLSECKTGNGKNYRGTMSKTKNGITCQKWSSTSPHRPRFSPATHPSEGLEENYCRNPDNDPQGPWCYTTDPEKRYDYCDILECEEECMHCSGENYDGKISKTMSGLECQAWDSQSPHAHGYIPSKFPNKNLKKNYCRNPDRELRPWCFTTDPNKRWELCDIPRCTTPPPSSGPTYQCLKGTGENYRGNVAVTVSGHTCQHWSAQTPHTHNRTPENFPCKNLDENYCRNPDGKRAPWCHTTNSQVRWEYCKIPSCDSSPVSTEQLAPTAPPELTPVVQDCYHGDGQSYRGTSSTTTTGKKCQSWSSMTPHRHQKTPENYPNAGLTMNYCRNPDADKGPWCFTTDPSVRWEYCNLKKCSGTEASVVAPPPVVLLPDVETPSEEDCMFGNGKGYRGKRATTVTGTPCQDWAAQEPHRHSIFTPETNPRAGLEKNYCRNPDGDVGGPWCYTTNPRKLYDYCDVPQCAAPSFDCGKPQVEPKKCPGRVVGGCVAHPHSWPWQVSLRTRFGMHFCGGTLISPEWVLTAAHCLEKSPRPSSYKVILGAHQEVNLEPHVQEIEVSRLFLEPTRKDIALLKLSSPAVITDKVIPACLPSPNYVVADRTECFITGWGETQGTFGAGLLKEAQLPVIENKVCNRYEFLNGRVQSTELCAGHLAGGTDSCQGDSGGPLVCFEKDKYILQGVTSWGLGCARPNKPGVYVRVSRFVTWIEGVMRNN

T2: porcine trypsin (Porcine), P00761
T2 chain: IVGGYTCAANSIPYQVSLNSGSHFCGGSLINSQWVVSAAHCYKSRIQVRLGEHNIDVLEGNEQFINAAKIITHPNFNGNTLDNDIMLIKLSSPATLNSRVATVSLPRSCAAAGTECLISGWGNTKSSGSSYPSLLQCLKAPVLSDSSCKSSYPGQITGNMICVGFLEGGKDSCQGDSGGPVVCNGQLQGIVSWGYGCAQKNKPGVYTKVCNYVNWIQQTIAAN


Legend:
[1] = biological target: bovine pancreatic trypsin (bovine), P00760; experiment: enzyme inhibition; residual trypsin activity fitted to tight-binding equation (Morrison); apparent Ki (Kiapp)
Sequence of bovine pancreatic trypsin (bovine), P00760 (P00760 24-246): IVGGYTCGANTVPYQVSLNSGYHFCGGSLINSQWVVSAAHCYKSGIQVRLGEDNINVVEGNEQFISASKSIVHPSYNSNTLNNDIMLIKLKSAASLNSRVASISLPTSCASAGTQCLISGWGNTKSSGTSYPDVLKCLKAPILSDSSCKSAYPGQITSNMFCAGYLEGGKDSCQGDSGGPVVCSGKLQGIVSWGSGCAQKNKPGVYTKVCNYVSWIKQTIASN

[2] = biological target: human tryptase β-II (Human), P20231; experiment: enzyme inhibition, selectivity panel; apparent Ki (Kiapp)
Sequence of human tryptase β-II (Human), P20231 (P20231 31-275 limits assumed): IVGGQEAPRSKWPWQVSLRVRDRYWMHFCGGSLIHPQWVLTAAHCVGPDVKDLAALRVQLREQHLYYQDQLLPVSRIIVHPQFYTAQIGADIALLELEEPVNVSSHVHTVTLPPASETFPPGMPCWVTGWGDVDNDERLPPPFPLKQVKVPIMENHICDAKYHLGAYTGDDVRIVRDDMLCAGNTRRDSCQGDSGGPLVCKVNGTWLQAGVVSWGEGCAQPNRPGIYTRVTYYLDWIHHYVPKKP

[3] = biological target: T1, human plasmin (Human), P00747; experiment: as above
[4] = biological target: human tryptase β-Ia (Human), Q15661; experiment: as above
Sequence of human tryptase β-Ia (Human), Q15661 (Q15661 31-275 limits assumed): as the sequence (P20231 31-275 limits assumed) above, with R21H, D22G, R23P counted along it

[5] = biological target: T2, porcine trypsin (Porcine), P00761; experiment: as above
[6] = biological target: sheep tryptase ST2 (Sheep); experiment: as above
Sequence of sheep tryptase ST2 (Sheep) (Q9XSM2 29-273): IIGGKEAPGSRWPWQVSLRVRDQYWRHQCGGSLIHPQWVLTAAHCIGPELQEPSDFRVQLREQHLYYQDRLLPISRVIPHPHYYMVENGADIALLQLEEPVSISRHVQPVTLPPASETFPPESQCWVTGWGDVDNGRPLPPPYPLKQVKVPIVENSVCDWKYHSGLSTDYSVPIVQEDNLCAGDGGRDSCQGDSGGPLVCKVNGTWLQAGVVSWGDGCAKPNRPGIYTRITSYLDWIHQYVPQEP

[7] = biological target: hK3 (human kallikrein) (Human), P07288; experiment: as above
Sequence of hK3 (human kallikrein) (Human), P07288 (P07288 25-261): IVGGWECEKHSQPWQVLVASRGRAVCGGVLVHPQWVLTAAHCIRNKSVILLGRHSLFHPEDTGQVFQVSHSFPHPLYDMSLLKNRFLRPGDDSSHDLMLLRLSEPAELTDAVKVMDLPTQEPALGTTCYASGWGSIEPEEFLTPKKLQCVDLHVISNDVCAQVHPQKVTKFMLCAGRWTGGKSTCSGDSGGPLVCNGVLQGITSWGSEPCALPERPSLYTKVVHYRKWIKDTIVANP

| Binder | Ki [1] [nM] | Ki [2] [nM] | Ki [3] [nM] | Ki [4] [nM] | Ki [5] [nM] | Ki [6] [nM] | Ki [7] [nM] |
| --- | --- | --- | --- | --- | --- | --- | --- |
| GVCPKILRKCRRDSDCPGACICRGNGYCG (modifications not checked) [MCoTI-LRKC] | 0.5 | – | – | – | – | – | – |
| GVCPKILKRCRRDSDCPGACICRGNGYCG (modifications not checked) [MCoTI-LKRC] | 0.4 | – | – | – | – | – | – |
| KKVGVCPKILKKCRRDSDCPGACICRGNGYCG (modifications not checked) [MCoTI-KKV] | 0.4 | 4 | 400 | 3 | 0.4 | 100 | – |
| GVCPGILKKCRRDSDCPGACICRGNGYCG (modifications not checked) [MCoTI-AlaG] | 1000 | – | – | – | – | – | – |
| GVCPKILKACRRDSDCPGACICRGNGYCG (modifications not checked) [MCoTI-LKAC] | 0.4 | – | – | – | – | – | – |
| GVCPRILKKCRRDSDCPGACICRGNGYCG (modifications not checked) [MCoTI-R] | 0.8 | 40 | – | 40 | 0.8 | 1000 | 100 |

Binders with a lower Ki [1], results first:

| Ki [1] [nM] | Ki [2] [nM] | Ki [3] [nM] | Ki [4] [nM] | Ki [5] [nM] | Ki [6] [nM] | Ki [7] [nM] | Binder |
| --- | --- | --- | --- | --- | --- | --- | --- |
| 0.3 | – | – | – | – | – | – | GVCPKILKKCRRDSDCPGACICRGNGYCG (modifications not checked) [SE-MC-K] |
| 0.3 | 70 | 600 | 70 | 0.3 | 4000 | – | GVCPKILKKCRRDSDCLAGCVCGPNGFCGS (modifications not checked) [SE-MG-0] |
| 0.2 | – | – | – | – | – | – | GVCPKILAKCRRDSDCPGACICRGNGYCG (modifications not checked) [MCoTI-LAKC] |
| 0.03 | – | – | – | – | – | – | GSVCPKILKKCRRDSDCLAGCVCGPNGFCGS (modifications not checked) [MCoEeTI] |
